This passage reports protein stability index results from the supplement of paper PMC10567573.

± gives the standard deviation.

This data set in a line: protein stability index of a GFP-peptide fusion (GPS, HEK-293T) (PSI 1-6); higher = more stable. The following applies: c terminus: a fixed tail appended.
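Also: 24-mer peptide tiles fused after GFP, lentivirally expressed, FACS-sorted into six equal bins by GFP/DsRed ratio, decoded by Illumina sequencing, PSI is the read-weighted mean bin number.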

For DWGRTALHYAAASDMDRNKTILGN [ANKRD44], the protein stability index by setting is: (treatment: DMSO) 3.35 ± 0.32; (treatment: MLN4924 1 uM, 8 h) 3.35 ± 0.17.
Consider SEWQRKLEAAEALLTLRNSAQAPP [DMRTC1], for which the protein stability index was 4.45 ± 0.55 (treatment: DMSO) and 4.63 ± 0.26 (treatment: MLN4924 1 uM, 8 h).
Consider PGYLVGRNNANGVDLNRNFPDLNT [CPN1], for which the protein stability index is 3.73 ± 0.36 (treatment: DMSO) and 3.67 ± 0.48 (treatment: MLN4924 1 uM, 8 h).
With GDSFSHSSNRIRHLRTHTGERPYK [ZNF263], the protein stability index by setting is: (treatment: DMSO) 4.28 ± 0.14; (treatment: MLN4924 1 uM, 8 h) 4.62 ± 0.16.
EMAATPAGFAQLTHLLMGLAGGKL [HDAC6]: the protein stability index is 2.26 ± 0.39 (treatment: DMSO) and 2.39 ± 0.22 (treatment: MLN4924 1 uM, 8 h).
For AHLAAEVEGKCLQSGFEMLKDVKS [TRIM39], the protein stability index (treatment: DMSO) came out at 4.17 ± 0.22 and the protein stability index (treatment: MLN4924 1 uM, 8 h) turned out to be 4.62 ± 0.28.
On to LADSDTLSSAEENEPSQAETAVEG [C18orf25], for which the protein stability index turned out to be 5.55 ± 0.33 (treatment: DMSO) and 5.54 ± 0.16 (treatment: MLN4924 1 uM, 8 h).
The like results for TPAITVSNSCPAELPNIKREISET [TFE3] were, in that order, 5.16 ± 0.35 and 4.86 ± 0.22.
The like results for RQVPGSDPACYEFLWGPRALIETS [MAGEA6] were, in that order, 2.62 ± 0.56 and 2.85 ± 0.35.
For MRPWTGSWRWIMLILFAWGTLLFY [FUT8], in that order: 3.24 ± 0.16 and 3 ± 0.092.
Take GEIETIARFGSGPCKTRDDEPVCG [APMAP]: the protein stability index runs as follows: (treatment: DMSO) 4.66 ± 0.47; (treatment: MLN4924 1 uM, 8 h) 5.13 ± 0.27.
Take VPIGASIYVIGDLDTGTNYDYVRE [GAN]: the protein stability index runs as follows: (treatment: DMSO) 2.29 ± 0.45; (treatment: MLN4924 1 uM, 8 h) 2.21 ± 0.31.
For GPIQLWQFLLELLSDKSCQSFISW [ETS2], in that order: 2.62 ± 0.5 and 2.73 ± 0.6.
For RSLLLKYARTPTLDPDTMHARLRL [TRIM14], in that order: 2.45 ± 0.35 and 2.37 ± 0.44.
Take CLRRCKRTLPAFQVPYPPRQLLRD [P3H4]: the protein stability index is, setting by setting: (treatment: DMSO) 2.16 ± 0.24; (treatment: MLN4924 1 uM, 8 h) 2.27 ± 0.24.
For LSVTISFRIYKSVIQAVQKSEEGH [RTN3], in that order: 3.26 ± 0.61 and 3 ± 0.42.
Turning to EQQNQEYKILLDVKTRLEQEIATY [KRT17], the protein stability index reads like this: (treatment: DMSO) 3.44 ± 0.34; (treatment: MLN4924 1 uM, 8 h) 3.59 ± 0.56.
For AADRHINFCKEQAARISNKGKFST [ZC2HC1A], in that order: 2.57 ± 0.28 and 2.85 ± 0.14.
For LVPFVGKVHIGYLPNKQVLGLSKL [GCH1], the protein stability index is, setting by setting: (treatment: DMSO) 2.78 ± 0.19; (treatment: MLN4924 1 uM, 8 h) 2.06 ± 0.37.
For the sequence PMVLKGKIRPDSSRPELLQPLNFV [GLT8D2], the protein stability index came out at 2.83 ± 0.2 (treatment: DMSO) and 3 ± 0.3 (treatment: MLN4924 1 uM, 8 h).
Regarding SNLSYHLEKNHPEEFCEFVKSNTE [ZBED1], the protein stability index reads like this: (treatment: DMSO) 4.72 ± 0.18; (treatment: MLN4924 1 uM, 8 h) 4.69 ± 0.29.
Regarding LANHTGYIKVDWQRVEKDMKKAKE [FUNDC2], the protein stability index reads like this: (treatment: DMSO) 4.11 ± 0.21; (treatment: MLN4924 1 uM, 8 h) 4.08 ± 0.19.
TSQKVARKFWWKNVKMIVLICVIV [VAMP8]: the protein stability index reads like this: (treatment: DMSO) 2.42 ± 0.31; (treatment: MLN4924 1 uM, 8 h) 2.15 ± 0.29.
For GPLLDSLYWTKWYNNQSLGHGSHS [PKD2L1], in that order: 2.51 ± 0.16 and 2.47 ± 0.38.
The like results for HPIEEAAEEHREKLLKQMRILWKK [TRIM43] were, in that order, 3.45 ± 0.39 and 3.7 ± 0.58.
On to PERSDLTLYLIVALATVSLLSLVT [PCDHGC5], for which the protein stability index is, setting by setting: (treatment: DMSO) 2.02 ± 0.44; (treatment: MLN4924 1 uM, 8 h) 2.27 ± 0.56.
The like results for MLEKMDLKEFDLDALLGIDDLETM [ATF4] were, in that order, 3.85 ± 0.14 and 3.87 ± 0.26.
With KRRANQKSSAQGPIPWFLPESRSL [PPEF2], the protein stability index was 3.49 ± 0.23 (treatment: DMSO) and 3.57 ± 0.16 (treatment: MLN4924 1 uM, 8 h).
The like results for IFCIKRFTKNNFFVEKNPTIVNFP [USP39] were, in that order, 3.02 ± 0.74 and 2.38 ± 0.76.
For SSNHGCQHECVNTDDSYSCHCLKG [MATN2], in that order: 4.95 ± 0.08 and 5.1 ± 0.2.
For WKERDEYITKVSEEVTRLGAQVKE [TRIM15], in that order: 4.69 ± 0.23 and 4.22 ± 0.42.
With KYKCLLQQLYYTEADYEDDSKIAF [IQUB], the protein stability index runs as follows: (treatment: DMSO) 2.12 ± 0.6; (treatment: MLN4924 1 uM, 8 h) 2.02 ± 0.32.
For FKKQIWLLFEYPESSSPARGIAIV [KCNA4], in that order: 2.74 ± 0.17 and 2.42 ± 0.3.
The like results for PENILLDRDGHIKLTDFGFAKKLV [PRKX] were, in that order, 2.9 ± 0.17 and 3.08 ± 0.072.
Consider MDGESEEEQESVDTGEEEEGGDES [EHMT1], for which the protein stability index came to 5.66 ± 0.15 (treatment: DMSO) and 5.51 ± 0.16 (treatment: MLN4924 1 uM, 8 h).
Turning to YLATAKVLITVEDVNDNSPELTIT [PCDHGA10], the protein stability index runs as follows: (treatment: DMSO) 2.49 ± 0.2; (treatment: MLN4924 1 uM, 8 h) 2.44 ± 0.22.
Take SVEEQLSLISGCPNIQEAVEGAMH [CRYL1]: the protein stability index is 4.68 ± 0.17 (treatment: DMSO) and 4.64 ± 0.15 (treatment: MLN4924 1 uM, 8 h).
For NSAAHLFGYRPYDKNISPRENILV [SCD], in that order: 2.22 ± 0.38 and 2.57 ± 0.26.
The like results for ARFGSGPCKTRDDEPVCGRPLGIR [APMAP] were, in that order, 3.75 ± 0.28 and 3.87 ± 0.35.
For YEDIRRENPVGTFHCSMSPGNLEK [PTPN9], in that order: 4.58 ± 0.23 and 4.73 ± 0.13.
On to TIRGEVMFFKDRFYMRTNPFYPEV [MMP1], for which the protein stability index (treatment: DMSO) amounted to 2.2 ± 0.39 and the protein stability index (treatment: MLN4924 1 uM, 8 h) was 2.21 ± 0.12.
On to IGRAAGTGFTVNVAWNGPRMGDAD [HDAC6], for which the protein stability index is, setting by setting: (treatment: DMSO) 3.02 ± 0.28; (treatment: MLN4924 1 uM, 8 h) 3.15 ± 0.32.
RQVEKRRNSGPVVEKLKQMQEFFG [MMP1]: the protein stability index is 3.04 ± 0.57 (treatment: DMSO) and 3.07 ± 0.14 (treatment: MLN4924 1 uM, 8 h).
As to RGLRYYYDKNIIHKTAGKRYVYRF [ETS1], the protein stability index reads like this: (treatment: DMSO) 2.32 ± 0.2; (treatment: MLN4924 1 uM, 8 h) 2.46 ± 0.18.
The like results for HKKTTHKLNCDPSRIYKPQTRLKR [DFFB] were, in that order, 4.07 ± 0.28 and 4.22 ± 0.25.
Consider FHYIPGTDILDLENQRENLEQPFL [PLEKHN1], for which the protein stability index was found to be 2.92 ± 0.58 (treatment: DMSO) and 3.09 ± 0.16 (treatment: MLN4924 1 uM, 8 h).
For KTTGLEEAAEAETAKDNGEAEDQE [SRPK2], in that order: 5.69 ± 0.14 and 5.73 ± 0.24.
The like results for AISSPTVSRLTDTTKFTGSHKERF [TPPP] were, in that order, 4.17 ± 0.26 and 4.29 ± 0.12.
For TWEHSNLEVNKPKNRYANVIAYDH [PTPRD], in that order: 2.98 ± 0.27 and 3.02 ± 0.32.
As for SVDPIAAFCSSDEELEDSKALLYL [RBBP5], the protein stability index reads like this: (treatment: DMSO) 3.94 ± 0.26; (treatment: MLN4924 1 uM, 8 h) 4.08 ± 0.36.
The like results for PHKTFRKLRLFDTPHTPKSLLSKA [WEE1] were, in that order, 2.82 ± 0.35 and 2.98 ± 0.41.
On to TDRPLLSTLEESVVRICCIRSFGH [SMG5], for which the protein stability index is 2.36 ± 0.24 (treatment: DMSO) and 2.08 ± 0.12 (treatment: MLN4924 1 uM, 8 h).
For PCPLGEPKTQACSGSESPSDSGKD [MYCL], in that order: 5.41 ± 0.24 and 5.41 ± 0.17.
